Measured values taken from patent US20240132571A1 (MEDPACTO, published 2024).

T1: TM4SF19 in which 3HA was tagged at the N-terminus (human TM4SF19, NP_612470.2 isoform 1) (human, UniProt Q96DZ7 1-209)
T1 construct: also called 3HA-TM4SF19; TM4SF19 tagged with 3HA in N-terminus; not shown: 3HA tag at the N-terminus
T1 sequence: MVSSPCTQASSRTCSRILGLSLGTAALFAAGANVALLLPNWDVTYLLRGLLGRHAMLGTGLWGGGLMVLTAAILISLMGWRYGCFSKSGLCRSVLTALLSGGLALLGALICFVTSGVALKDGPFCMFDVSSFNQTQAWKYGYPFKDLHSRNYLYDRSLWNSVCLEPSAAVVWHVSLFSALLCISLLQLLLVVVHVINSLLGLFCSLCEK


Experiments:
[1] = biological target: T1, TM4SF19 in which 3HA was tagged at the …; assay: immunoprecipitation, 293T cells
From the text: In the same manner as described above, by the transient overexpression of TM4SF19 in which 3HA was tagged at the N-terminus, a wild-type in which 3Flag was tagged at the N-terminus, and a TM4SF19 deletion mutant in 293T cells, binding was confirmed through immunoprecipitation.

[2] = biological target: T1, TM4SF19 in which 3HA was tagged at the …; assay: immunoprecipitation, 3HA- and 3Flag-tagged TM4SF19 in 293T cells
From the text: To confirm whether TM4SF19 is involved in cell-to-cell interactions, HA- or flag-tagged TM4SF19 was manufactured. TM4SF19 in which 3HA was tagged at the N-terminus, a wild-type in which 3Flag was tagged at the N-terminus, and a TM4SF19-deletion mutant were subjected to transient overexpression in 293T cells to confirm binding through immunoprecipitation.

| Binder | binding result [1] | binding result [2] |
| --- | --- | --- |
| hTM4SF19 94-196Δ (3Flag-tagged deletion mutant lacking transmembrane 3, extracellular region 2 and transmembrane 4) (other, the kept ranges are worked out from the printed deletion limits; not shown: 3Flag tag) MVSSPCTQASSRTCSRILGLSLGTAALFAAGANVALLLPNWDVTYLLRGLLGRHAMLGTGLWGGGLMVLTAAILISLMGWRYGCFSKSGLCRSNSLLGLFCSLCEK | no binding | – |
| hTm4sf19 94-196 (only aa 94-196 of hTM4SF19 remains, other sequences deleted) (other, Expresses transmembrane 3, extracellular region 2 (EC2) and transmembrane 4 of TM4SF19; overexpressed in 293T cells; not shown: tag not expressly stated for this mutant (the other mutants carry 3Flag)) VLTALLSGGLALLGALICFVTSGVALKDGPFCMFDVSSFNQTQAWKYGYPFKDLHSRNYLYDRSLWNSVCLEPSAAVVWHVSLFSALLCISLLQLLLVVVHVI | binds | – |
| wild-type TM4SF19 in which 3Flag was tagged at the N-terminus (human TM4SF19) (other, Overexpressed in 293T cells (for the integrins: 293T or Raw 264.7 cells) and tested by immunoprecipitation; also called 3Flag-hTM4SF19; TM4SF19 wt; not shown: 3Flag tag at the N-terminus) MVSSPCTQASSRTCSRILGLSLGTAALFAAGANVALLLPNWDVTYLLRGLLGRHAMLGTGLWGGGLMVLTAAILISLMGWRYGCFSKSGLCRSVLTALLSGGLALLGALICFVTSGVALKDGPFCMFDVSSFNQTQAWKYGYPFKDLHSRNYLYDRSLWNSVCLEPSAAVVWHVSLFSALLCISLLQLLLVVVHVINSLLGLFCSLCEK | – | binds |
